B1: POU domain, class 5, transcription factor 1, residues 134 to 212; numbered along this chain, Q01860 (parent)
chain: EESQDIKALQKELEQFAKLLKQKRITLGYTQADVGLTLGVLFGKVFSQTTICRFEALQLSFKNMCKLRPLLQKWVEEAD
B2: Intersectin-1, residues 1156 to 1213; numbered along this chain, Q15811 (parent)
chain: AVCQVIGMYDYTAQNDDELAFNKGQIINVLNKEDPDWWKGEVNGQVGLFPSNYVKLTT

Variants of: B1
Assay: abundance fitness (aPCA) (normalised: wild type 0, dead -1); higher = more abundant; growth selection in yeast, the domain comes from the species named
Details: Homo sapiens

Abundance fitness of substitutions, site by site:
E1: L -0.135 | Q 0.066 | K -0.034 | G 0.053 | W -0.244 | R 0.064 | S -0.58 | V -0.45 | M 0.273

Variants of: B2
Assay: as above
Details: Homo sapiens

Abundance fitness: each site, then its substitutions
L56: I 0.069 | E 0.005 | A 0.08 | Y -0.168 | R -0.341 | N -0.149 | M -0.148 | C 0.266 | D -0.106 | P -0.121 | Q -0.151 | H -0.334 | F -0.124 | W -0.405 | T 0.081 | V 0.006 | G -0.102 | S 0.083
Y53: F -0.208 | I -0.239 | L -0.155 | D -0.834 | A 0.043 | K 0.085 | H -0.26 | N -0.54 | W -0.255 | R -0.068 | M 0.12 | V -0.343 | Q -0.224 | S -0.426 | P -0.726 | E -0.711 | C 0.034 | G -0.601 | T -0.11
N52: R 0.022 | L -0.561 | Q -0.147 | I -0.364 | S -0.075 | D -0.079 | M -0.097 | W -0.446 | V -0.439 | T -0.067 | F -0.784 | A -0.183 | Y -0.291 | P -0.544 | C -0.251 | G -0.253 | E -0.201 | H -0.469
Q45: H -0.398 | I -0.1 | F -0.387 | V 0.008 | W -0.537 | K 0.084 | L -0.28 | M -0.023 | C -0.03 | A 0.016 | G -0.662 | E -0.149 | P -0.765 | R -0.043 | D 0.075 | Y -0.411 | T -0.169 | S -0.198 | N 0.109
N43: G -0.241 | M -0.56 | E -0.189 | C -0.541 | Y -0.734 | A -0.263 | L -0.412 | T -0.85 | R -0.436 | Q -0.36 | D -0.03 | H -0.08 | P -0.736 | I -0.93 | V -0.794 | W -1.06 | K -0.411 | S -0.294 | F -0.799
G40: V -0.891 | E -0.769 | K -0.848 | S -0.839 | T -0.56 | F -0.953 | P -0.591 | M -0.658 | D -0.722 | I -0.752 | A -0.753 | H -0.832 | L -0.783 | W -0.981 | Y -0.73
S51: F -0.942 | A -0.029 | W -0.877 | G -0.87 | C -0.504 | I -0.751 | H -0.517 | K -0.09 | P -0.235 | N -0.506 | R -0.053 | Q -0.452 | E -1.02 | L -0.867 | T -0.312 | V -0.181 | Y -0.927
T58: L -0.187 | A -0.315 | R 0.062 | G 0.053 | I -0.587 | V -0.113 | N -0.233 | S -0.144 | P -0.09
F49: P -0.814 | E -0.816 | Y -0.782 | R -0.862 | C -0.871 | K -0.84 | L -0.527 | A -0.743 | N -0.431 | D -0.485 | I -0.184 | Q -0.661 | S -0.817 | G -0.829 | T -0.861 | M -0.725 | W -0.76 | V -0.391
V46: T -0.337 | E -0.412 | R -0.375 | L -0.499 | D -0.668 | S -0.296 | A -0.505 | F -0.463 | M -0.396 | Q -0.242 | I -0.006 | H -0.562 | G -0.712 | C -0.503 | Y -0.34 | K -0.306 | W -0.892 | N -0.703
K39: V -0.448
P50: E -0.847 | M -0.799 | V -0.929 | T -0.773 | F -0.459 | Q -1.06 | Y -0.932 | S -0.954 | N -0.71 | C -0.615 | D -0.507 | R -0.323 | I -0.671 | H -0.973 | K -0.547 | W -0.713 | L -0.873
V54: L -0.854 | M -0.755 | K -0.906 | N -0.758 | S -0.874 | F -0.806 | I -0.773 | R -0.684 | Y -0.766 | P -0.842 | Q -0.904 | A -0.546 | H -0.767 | C -0.367 | W -0.762 | E -0.931 | T -0.065 | G -0.836 | D -0.943
G44: L -0.879 | E -0.911 | M -0.88 | A -0.56 | N -0.219 | C -0.682 | Q -0.613 | I -0.797 | S -0.677 | D -0.397 | W -0.832 | R -0.83 | T -0.92 | P -0.806 | Y -0.734 | H -0.658 | K -0.981
K55: N -0.456 | Q -0.177 | Y -0.427 | D -0.513 | F -0.614 | R 0.067 | W -0.678 | I -0.325 | P -0.797 | H -0.431 | L -0.318 | T -0.225 | C -0.098 | M 0.024 | S -0.004 | A -0.146
E41: F -1.22 | P -1 | S -0.299 | A -0.568 | Y -0.887 | D -1.11 | H -0.495 | R -0.746 | N -0.889 | V -0.681 | I -0.936 | K -0.456 | C -0.787 | Q -0.863 | G -0.842 | W -0.642
L48: M -0.111 | H -0.335 | F 0.146 | P -0.886 | E -0.784 | T -0.184 | Q -0.479 | Y -0.056 | K -0.055 | I 0.063 | R -0.07 | W 0.028 | G -0.544 | D -0.761 | V -0.068 | S -0.258 | N -0.166
T57: N -0.028 | C -0.115 | Y -0.063 | M -0.009 | D -0.055 | F 0.086 | W -0.167 | L -0.116 | S -0.174 | A -0.059 | I -0.13 | V -0.06 | R -0.131 | E -0.519 | H -0.003 | Q 0.028 | K -0.024
G47: Y -0.908 | E -0.853 | R -0.786 | N -0.651 | D -0.833 | P -0.867 | Q -0.6 | C -0.974 | A -0.755 | L -0.881 | H -0.943 | T -0.941 | F -1.01 | V -0.796 | K -0.582 | I -0.846 | W -0.802 | S -0.828
V42: N -0.756 | C 0.091 | Q -0.617 | Y 0.042 | A 0.041 | P -0.72 | M -0.093 | G -0.62 | R -0.274 | H -0.237 | T -0.299 | W -0.811 | D -0.663 | L 0.018 | E -0.949 | K -0.405 | I -0.048

— the Human Domainome abundance scans (Beltran et al. 2025)
